Data from patent US20250243282A1 (TRUEBINDING, published 2025).

Experiments:
[1] = target: T1, Recombinant human Gal3 (rhGal3) (TrueBinding, #QC200361) (human, UniProt P17931 2-250); assay: cell-based or functional assay
[2] = target: T1, Recombinant human Gal3 (rhGal3) …; assay: cell-based or functional assay; remark: listed apart in the source
[3] = target: T2, human Gal3 protein (recombinant human Galectin-3) (human, UniProt P17931 2-250); assay: SPR (Carterra LSA), antibody immobilised on HC200M chip, hGal3 injected
T2 construct: also called hGal3; hGAL3
T2 sequence (P17931 2-250 limits assumed): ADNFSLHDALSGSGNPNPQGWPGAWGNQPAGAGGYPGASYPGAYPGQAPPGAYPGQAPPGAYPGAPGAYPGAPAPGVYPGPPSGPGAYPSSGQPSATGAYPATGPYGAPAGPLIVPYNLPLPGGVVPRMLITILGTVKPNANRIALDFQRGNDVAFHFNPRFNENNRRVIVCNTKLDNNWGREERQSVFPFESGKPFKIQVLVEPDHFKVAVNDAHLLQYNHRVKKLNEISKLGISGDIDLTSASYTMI

[4] = target: T2, human Gal3 protein (recombinant human …)
[5] = target: T1, Recombinant human Gal3 (rhGal3) …; assay: cell-based or functional assay; remark: listed apart in the source
For % inhibition of CD62L shedding in this document: test concentration or dose not given here.
For % inhibition of IL-6 secretion in this document: test concentration or dose not given here.
For % inhibition of TNFα secretion in this document: test concentration or dose not given here.

B1: 847.21B11 (antibody, V domains shown)
VH: QVQLKQSGPGLVAPSQSLSITCTVSGFSLTSYGVHWVRQPPGKGLEWLGIIWAGGSTNYNPALMSRLSISKDKSKSQVFLKMNSLKTDDTAMYYCARDRASLLRPGAMDYWGQGTSVTVSS
VL: DIVMTQSQKFMSTSVGDRVSVTCKASQNVGINVAWYQQKPGQSPKALIYSASYRYSGVPDRFTGSGSGTDFTLTISNVQSEDLAEYFCQQYNSYPYTFGGGTKLEMK
% inhibition of CD62L shedding [1]: 16.4% | % inhibition of IL-6 secretion [2]: 27.3% | % inhibition of TNFα secretion [2]: -136% | binding result [3]: no binding

B2: 847.4D3 (antibody, V domains shown)
VH: EVQLVESGGGLVKPGGSLKLSCAASGFTFSSYAMSWVRQTPEKRLEWVASISSGDSPYYPDSVKGRFTISRDNARNILYLQMSSLRSEDTAMYYCTRFTTVVEMDYWGQGTSVTVSS
VL: DVVMTQTPKFLPITAEDRVTITCKASQSVSNEVAWYQQKPGQSPKLLIYYASNRYTGVPDRFTGSGSGTDFTFTIRSVQLEDLAVYFCQQHYSSPWTFGGGTKLEIK
% inhibition of CD62L shedding [1]: 7.5% | binding result [3]: no binding

B3: 847.10C9 (antibody, V domains shown)
VH: EVQLQQSGAELVRPGTSVKVSCKASEYAFNNYMMEWVKQRPGQGLEWIGVINPGSGATNYNENFKDKATLTADKSSTTAYMQLSSLTSDDSAVYFCTYNDLGYWGQGTLVTVSA
VL: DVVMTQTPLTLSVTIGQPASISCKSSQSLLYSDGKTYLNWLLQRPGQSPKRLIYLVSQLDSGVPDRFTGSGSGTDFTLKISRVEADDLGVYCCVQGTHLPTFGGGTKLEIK
% inhibition of CD62L shedding [1]: 150% | % inhibition of IL-6 secretion [2]: > -1000% | % inhibition of TNFα secretion [2]: -246%

B4: 847.15F9 (antibody, V domains shown)
VH: QVQMKQSGPGLVQPSQSLSITCTVSGFSLINYGVHWVRQSPGKGLEWLGVIWSGGSTDYNAAFISRLSISKDNSKSQVFFKMNSLQADDTAIYYCARIYYYGRGYAMDYWGQGTSVTVSS
VL: QIVLSQSPAILSASPGEKVTMTCRASSSVTYMYWYQQKPGSSPQPWIYATSNLASGVPARFSGSGSGTSYSLTISRVEAEDAATYYCQQWSSNPLTFGAGTKLELK
% inhibition of CD62L shedding [1]: 8.5% | % inhibition of IL-6 secretion [2]: 16.6% | % inhibition of TNFα secretion [2]: -178% | binding result [3]: no binding

B5: 847.2B8 (antibody, V domains shown)
VH: QVQLKQSGPGLVQPSQSLSITCTVSGFSLINYGVHWVRQSPGKGLEWLGVIWSGGSTDYNAAFISRLSISKDNSKSQVFFKMNSLQADDTAIYYCARIYYYGRGYAMDYWGQGTSVTVSS
VL: QILLSQSPAILSASPGEKVTMTCRASSSVTYMYWYQQKPGSSPQPWIYATSNLASGVPARFSGSGSGTSYSLTISRVEAEDAATYYCQQWSSNPLTFGAGTKLELK
% inhibition of CD62L shedding [1]: 7% | binding result [3]: no binding

B6: 849.4B2 (antibody, V domains shown)
VH: DGKLQESGPGLVKPSQSLSLTCSVTGYSITSGYYWNWIRQFPGNKLEWMGHISYDGRNNYNPSLKNRISITRDTSKNQFFLKLNSVTTEDTATYYCAGYDFLWYFDVWGTGTTVTVSS
VL: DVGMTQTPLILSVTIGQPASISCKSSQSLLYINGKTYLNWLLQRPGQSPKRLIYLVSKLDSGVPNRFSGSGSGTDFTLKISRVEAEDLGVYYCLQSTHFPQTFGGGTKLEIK
% inhibition of CD62L shedding [1]: 6.2% | % inhibition of IL-6 secretion [2]: -9.8% | % inhibition of TNFα secretion [2]: -162% | binding result [3]: no binding

B7: 2D10.2B2 (antibody, mouse IgG2a, V domains shown)
VH: QVQLQQSGPELVKPGASVKISCKASGYTFTDYYINWVKQRPGQGLEWIGWIYPGSNDTKYNEKFKGKATLTVDTSSSTAYMQLGSLTSEDSAVYFCANYFGCSGWFFDVWGTGTTVTVSS
VL: DIVMTQAAFSNPVTLGTSASISCRSSKSLLHSDGITYLYWYLQRPGQSPQLLIYRMSNLASGVPDRFSGSGSGTDFTLRISRVEAEDVGVYYCAQMIEFPLTFGAGTILELKR
% blocking [4]: > 95%

B8: 847.20H7 (antibody, V domains shown)
VH: QVQLQQSGAELVRPGASVNLSCKASGYTFTNYWMNWVKQRPGQGLEWVGMIDPSDSETHYNQMFKDKATLTIDKSSSIAYMQLSSLTSEDSAVYYCARWGAMDYWGQGTSVTVSS
VL: DIVMTQSHKIMSTSVGDRVSITCKASQDVSTTVAWFQQKPGQSPKLLLYWASTRHTGVPDRFTGSGSGTDYTLTISSVQAEDLALYYCQQHYSPPFTFGSGTKLEIK
% inhibition of CD62L shedding [1]: 63.4% | % inhibition of IL-6 secretion [2]: -155% | % inhibition of TNFα secretion [2]: -185%

B9: 847.12C4 (antibody, V domains shown)
VH: QVQLKESGPDLVQPSQTLSLTCTVSGFSLTIYGVHWVRQPPGKGLEWVGTVAWDDKKYYNSPLQSRLSISRDTSKNQVFLKLSSLQTEDTAMYYCTMTGGPINYWGPGTSVTVSS
VL: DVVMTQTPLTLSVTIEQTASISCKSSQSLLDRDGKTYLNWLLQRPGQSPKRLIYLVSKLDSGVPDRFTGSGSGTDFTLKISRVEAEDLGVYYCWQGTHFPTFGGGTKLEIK
% inhibition of CD62L shedding [1]: 150% | % inhibition of IL-6 secretion [2]: -0.7% | % inhibition of TNFα secretion [2]: -5.4%

B10: 847.28D1 (antibody, V domains shown)
VH: QVQLVETGPGLVAPSQSLSITCTVSGFSLTSYGVHWIRQSPGKGLEWLGTIWAGGSTDYNSPLMSRLSISKDNSKNQVFLKMNSLQIDDTAIYYCASPPSGYDYDVFASWGQGTLVTVSA
VL: DIRMTQSPASLSASVGETVTITCRASGNIHNYLAWYHQKQGKSPQLLVYNVKTLADGVPSRFSGSGSGTQFSLKINSLQPEDFGTYYCQHFWSIFPTFGGGTKLEIK
% inhibition of CD62L shedding [1]: 110% | % inhibition of IL-6 secretion [2]: 78.6% | % inhibition of TNFα secretion [2]: 80.5%

B11: 847.3B3 (antibody, V domains shown)
VH: QVQLKESGPGLVAPSQSLSITCTVSGFSLTSYGVHWIRQPPGKGLEWLGGIWAGGSTDYNSPLMSRLSITKDNSKSQVFLKMNSLQSDDTAMYYCASPPSGYDYDVFAYWGQGTLVTVSA
VL: DILMTQSPASLSASVGETVTITCRASGNIHNYLAWYQQKQGKSPQLLVYSAKTLADGVPSRFSGSGSGTQFSLKIDSLQPEDFGTYYCQHFWSLFPTFGGGTKLEIK
% inhibition of CD62L shedding [1]: 43.4% | % inhibition of IL-6 secretion [2]: 72.3% | % inhibition of TNFα secretion [2]: 94.3%

B12: 847.27B9 (antibody, V domains shown)
VH: QIQLVQSGPELKKPGETVKISCKASGYTFTNYGMNWVKQAPGKGLKWMGWINTNTGEPTYAEEFKGRFAFSLETSASTAYLQINYLKNEDTATFFCARLDYDYDEDYWGQGTTLTVSS
VL: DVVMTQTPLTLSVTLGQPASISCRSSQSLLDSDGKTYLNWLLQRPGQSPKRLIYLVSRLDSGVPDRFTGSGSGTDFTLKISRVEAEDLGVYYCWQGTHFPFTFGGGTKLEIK
% inhibition of CD62L shedding [1]: 87.9% | % inhibition of IL-6 secretion [2]: -84.7% | % inhibition of TNFα secretion [2]: 70.1%

B13: 847.11D6 (antibody, V domains shown)
VH: EVKLQQSGPELMKPGTSMKISCKASGYSFTGYTMNWVKQSHGKNLEWIGLINPYNGGTNYNQKFRGKATLSVDKSSNTAYMELLSLTSEDSAVYYCARKDDYYGSSPYALDYWGQGTSVTVSS
VL: DIVMTQSPASLAVSLGQRATISCRASESVENHVNSFMHWFQQKPGQPPKLLIYRASNLQSGIPARFSGSGSRTDFTLTINPVEADDVATYYCQQNNEVPYTFGGGTKLEIK
% inhibition of CD62L shedding [1]: 83.2% | % inhibition of IL-6 secretion [2]: 22.7% | % inhibition of TNFα secretion [2]: -3.1%

B14: 847.15D12 (antibody, V domains shown)
VH: QVQLQQSGAELMKPGASVKISCKATGYTFTNYWIEWVKQRPGHGLEWIGEFLPGDGSSHYNEKFKGKATFTSDTSSNTAYIHLTSLTSEDSAVYYCVRDDYDSDYWAQGTTLTVSS
VL: QAVVTQESALTTSPGETVTLTCRSSTGAVTTSNYANWVQEKPDHLFTGLIGGTNNRAPGVPARFSGSLIGDKAALTITGAQTEDEAIYFCALWYSNHLVFGGGTKLTVL
% inhibition of CD62L shedding [1]: 15.4% | % inhibition of IL-6 secretion [2]: -71.9% | % inhibition of TNFα secretion [2]: -153%

B15: 849.4F12 (antibody, V domains shown)
VH: QVQLKESGPGILQPSQTLSLTCSFSGFSLSTFGMGVGWIRQPSGKGLEWLAHIWWDDDKHYNPALKSRLTISKDTSKNQVFLRIANVDTADNATYYCARIDYGDYVGFAYWGQGTLVTVSA
VL: DILLTQSPSSMSVSLGDTVSITCHASQGINSNIGWLQQKPGKSFKGLIYHGTNLEDGVPSRFSGSGSGADYSLTISSLESEDFADYYCVQYDQFPWTFGGGTKLEIK
% inhibition of CD62L shedding [1]: 17.9% | % inhibition of IL-6 secretion [2]: 1.2% | % inhibition of TNFα secretion [2]: -81.5% | binding result [3]: no binding

B16: 846T.4C9 (antibody, V domains shown)
VH: EVQLQQSGPELVKPGASVKMSCKASGYSFTNYIMHWVKQKPGQGLEWIGYINPYNDGTKYNEKFKGKATLTSDKSSSTAYMELSSLTSEDSAVYYCARLLFYYAMDYWGQGTSVTVSS
VL: DILMTQTPSSMSVSLGDTVSITCHASQGISSNIGWLQQKPRKSFKGLIYYGTNLEDGVPSRFSGSGSGADYSLTISSLESEDFADYYCVQYDQFPWTFGGGTKLEIK
% inhibition of CD62L shedding [1]: 11.2% | % inhibition of IL-6 secretion [2]: -38.3% | % inhibition of TNFα secretion [2]: -299% | binding result [3]: no binding

B17: TB001 (antibody, human IgG4 S228P, kappa, V domains shown)
VH: QVQLVQSGSELKKPGASVKVSCKASGYTFTNYGMNWVRQAPGQGLKWMGWINTNTGEPTYVEEFTGRFVFSLETSVSTAYLQISSLKAEDTAVYFCAPYDNFFAYWGQGTTVTVSS
VL: DIVLTQSPLSLPVTPGEPASISCRSSKSLLYKDGKTYLNWFLQKPGQSPQLLIYLMSTHASGVPDRFSGSGSGTDFTLKISRVEAEDVGVYYCQQLVDYPLTFGGGTKLEIKR
% inhibition of CD62L shedding [1]: 87.2% | % inhibition of IL-6 secretion [2]: 45.6% | % inhibition of TNFα secretion [2]: 81.4% | IC50 of blocking IL-6 secretion by HL60-derived neutrophils (rhGal3 + LPS) [5]: 509 nM | IC50 of blocking TNFα secretion by HL60-derived neutrophils (rhGal3 + LPS) [5]: 393 nM

B18: 847.15H11 (antibody, V domains shown)
VH: EVQLQQSGAEVVKPGAPVKLSCKASGYTFNNYWLNWVKQRPGRGLEWIGRIDPSDSETHYNQKFKDKATLTVDMSSSTAYIQLSSLTSEDSAVYYCARGDYYYGTRGPMDYWGQGTSVTVSS
VL: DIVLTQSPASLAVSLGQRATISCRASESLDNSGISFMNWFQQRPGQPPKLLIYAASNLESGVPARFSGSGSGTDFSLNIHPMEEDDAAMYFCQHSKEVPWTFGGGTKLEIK
% inhibition of CD62L shedding [1]: 39.3% | % inhibition of IL-6 secretion [2]: 94.7% | % inhibition of TNFα secretion [2]: 100%

B19: 846.2B11 (antibody, human IgG4 S228P, kappa, V domains shown)
VH: QVQLQQSGPELVRPGALVKISCKASGYTFTSYDINWVKQRPGQGLEWIGWIYPGDGSTKYNEKFKGKATLTADKSSSTAYMQLSSLTSENSAVYFCAREAASNAMDYWGQGTSVTVSS
VL: DIVLTQSPASLGVSLGQRATISCRASKSVSTSGYSYMHWYQQKPGQPPKLLIYLASILESGVPARFSGSGSGTDFTLNIHPVEEEDAAIYYCQHSRELPLTFGAGTKLELKR
% inhibition of CD62L shedding [1]: 8.2% | % inhibition of IL-6 secretion [2]: -0.5% | % inhibition of TNFα secretion [2]: -98% | binding result [3]: no binding
